The results in this text go back to the RNAGym collection of RNA variant scans (doi:10.7554/elife.80360).

B1: Twister Ribozyme (parent)
chain: AACACUGCCAAUGCCGGUCCCAAGCCCGGAUAAAAGUGGAGGGGGCGG

Variants of B1 are the subject of this data set. Description: self-cleavage, relative activity (ratio to wild type); higher = more cleavage; co-transcriptional.
AACACUGCCAAUGCCGGUCCCAAACCCGGACAAAAGUGGAGGGGGCGG [G24A U31C]: the self-cleavage amounted to 0.0777.

Regarding AACACUGCCAAAGCCGGUCCCAAGCCCGGAUAAAAGUGGAGGGGGAGG [U12A C46A], the self-cleavage was 1.09.

On to AACACUGCCAAUGCCGGUCCCAAGCCCGGAUAAAAUUGGAGGGGGCUG [G36U G47U], for which the self-cleavage worked out at 0.412.

On to AACACUGCCGAUGCCGGUCUCAAGCCCGGAUAAAAGUGGAGGGGGCGG [A10G C20U], for which the self-cleavage was determined as 0.878.

Take AACACUGCCAAUGCCGAUCCCAAGCCCGGAUAAAAGUGGUGGGGGCGG [G17A A40U]: the self-cleavage was found to be 0.117.

As to AACACUGCCAGUGCCGGUCCCAAGCACGGAUAAAAGUGGAGGGGGCGG [A11G C26A], the self-cleavage was 0.187.

On to GGCACUGCCAAUGCCGGUCCCAAGCCCGGAUAAAAGUGGAGGGGGCGG [A1G A2G], for which the self-cleavage was 1.19.

AACACUGCCAAUGCCGCUCCCAAACCCGGAUAAAAGUGGAGGGGGCGG [G17C G24A]: the self-cleavage turned out to be 0.0848.

With AACACUGCCAAUGCCGGUUCCAAGCCCGGAUAAAAGUGGAGGGGGCAG [C19U G47A], the self-cleavage came out at 0.763.

Take AACACUGCCAAUGCAGGUCCCAAGCCCGGAUGAAAGUGGAGGGGGCGG [C15A A32G]: the self-cleavage amounted to 0.583.

Take AACACUGACAAUGCCGGUCCCAAGCCCGGAUAAAAGCGGAGGGGGCGG [C8A U37C]: the self-cleavage turned out to be 0.144.

Turning to AACACUGCCAAUGCCGGACCCAAGCCCGGAUAUAAGUGGAGGGGGCGG [U18A A33U], the self-cleavage stood at 0.391.

As for AACACUGCCAAUGCCGGACCCAAGCCCGGAUAAAAGAGGAGGGGGCGG [U18A U37A], the self-cleavage was 0.0711.

AACACUGCUAAUGCCGGUCCUAAGCCCGGAUAAAAGUGGAGGGGGCGG [C9U C21U]: the self-cleavage amounted to 0.0907.

For the variant AACACUGCUAAUGCCGGUCCGAAGCCCGGAUAAAAGUGGAGGGGGCGG [C9U C21G], the self-cleavage stood at 0.0888.

Take AACACAGCCAAUGCCGGUCCCUAGCCCGGAUAAAAGUGGAGGGGGCGG [U6A A22U]: the self-cleavage is 0.816.

As for AACACUGCCAAUGCCGGUCUCAAGACCGGAUAAAAGUGGAGGGGGCGG [C20U C25A], the self-cleavage came to 0.078.

Take CACACUGCCAAUGCCGGUCCCAAGGCCGGAUAAAAGUGGAGGGGGCGG [A1C C25G]: the self-cleavage came to 0.13.

For the variant AACACUGCCAAUGCCGGUCCCAACCCCGGAUAAAAGUGGAGGGAGCGG [G24C G44A], the self-cleavage was determined as 0.0864.

For AACACUGCCACUGCCAGUCCCAAGCCCGGAUAAAAGUGGAGGGGGCGG [A11C G16A], the self-cleavage was 0.234.

With AACACUGCCAAUGCCGUUCCCAAGCCCGGAUAAAAGUGGAGGGGGCGU [G17U G48U], the self-cleavage is 0.316.

With AACACUCGCAAUGCCGGUCCCAAGCCCGGAUAAAAGUGGAGGGGGCGG [G7C C8G], the self-cleavage is 0.0684.

Take AACACUGCCAAUGCCGGUCCCAAGCCCGGAUAAAAGUGGAGUGGCCGG [G42U G45C]: the self-cleavage came to 0.203.

Consider AACACUGCCAAUGCCGUUCCCAAGCCCGGAUAAAAGUGGAGGGGGCCG [G17U G47C], for which the self-cleavage turned out to be 0.183.

As to AACACUGCCAAUGCCGGUCCCAAGCCCGGAUAAGAGUGGGGGGGGCGG [A34G A40G], the self-cleavage is 0.111.

For AACACUGCCAAUGCCGGUCCCAAGAGCGGAUAAAAGUGGAGGGGGCGG [C25A C26G], the self-cleavage turned out to be 0.0788.

Take AACACUGCCAUUGCCGGUCCCAAGCCCCGAUAAAAGUGGAGGGGGCGG [A11U G28C]: the self-cleavage came out at 0.801.

As to AACACUGUCAAUUCCGGUCCCAAGCCCGGAUAAAAGUGGAGGGGGCGG [C8U G13U], the self-cleavage turned out to be 0.103.

On to AACACUGACCAUGCCGGUCCCAAGCCCGGAUAAAAGUGGAGGGGGCGG [C8A A10C], for which the self-cleavage was found to be 0.594.

As to AACACUGCCAAUGCCGGUCCCAAUCCCCGAUAAAAGUGGAGGGGGCGG [G24U G28C], the self-cleavage worked out at 0.0992.

Consider AACACUGCCAAUGCCGGUCCCAGGCCCGUAUAAAAGUGGAGGGGGCGG [A23G G29U], for which the self-cleavage amounted to 0.425.

AACACUGCCAAUGCCGGUCCCAAGCUCGGAUAAAAGUGGAGGGGGCUG [C26U G47U]: the self-cleavage was 0.15.

On to AACACUGCCAAUGCCGGUCCCAAGGCCGGAUACAAGUGGAGGGGGCGG [C25G A33C], for which the self-cleavage was 0.227.

For the variant AACACUGCCAAUGCCGGACCCAAGACCGGAUAAAAGUGGAGGGGGCGG [U18A C25A], the self-cleavage came out at 0.0777.

Consider AACACUGCCAAUGCAGGUCCCAGGCCCGGAUAAAAGUGGAGGGGGCGG [C15A A23G], for which the self-cleavage is 0.141.

With AACACUGCCAAUGCCGGUCCCAAGCCCGGAUAAAACUGGAGGGGGCGA [G36C G48A], the self-cleavage amounted to 0.422.

AACACUGCCAAUGCCGGUAACAAGCCCGGAUAAAAGUGGAGGGGGCGG [C19A C20A]: the self-cleavage came out at 0.0769.

As for AACACUCCCAAUGCCGGUCCCAAGCCCGGAUAAAAGUUGAGGGGGCGG [G7C G38U], the self-cleavage was found to be 0.071.

Turning to AACACUGCCAAUGCUGUUCCCAAGCCCGGAUAAAAGUGGAGGGGGCGG [C15U G17U], the self-cleavage was 0.204.

On to AAUACUGCCAAUGACGGUCCCAAGCCCGGAUAAAAGUGGAGGGGGCGG [C3U C14A], for which the self-cleavage turned out to be 0.351.

Take AACACUGCCAAUGCCGGUCCCGAGCCCGGAUAAAAGUGGAGGAGGCGG [A22G G43A]: the self-cleavage came out at 0.0968.

Regarding AACACUGCAAAUGCCGGUCCCAAGCCCGGAUAAAAGUGGAGGGGGUGG [C9A C46U], the self-cleavage came out at 0.758.

Regarding AACACUGCCAAUGCUGGUCCCAAGCCCGGAUAAAAAUGGAGGGGGCGG [C15U G36A], the self-cleavage came to 0.454.

On to AACACUGCCAAUGCCGGUCCAAAGCCCGGAUAAAAGUGGAGGGGACGG [C21A G45A], for which the self-cleavage turned out to be 0.114.

As for AACACUGCCAAUGCCGGGCCCAAGCCCCGAUAAAAGUGGAGGGGGCGG [U18G G28C], the self-cleavage was 0.102.

For GAUACUGCCAAUGCCGGUCCCAAGCCCGGAUAAAAGUGGAGGGGGCGG [A1G C3U], the self-cleavage came out at 0.294.

As for AACACUGCCAAUGCCGGUCCCAAGCCCGGAAAAAAGUGGAGUGGGCGG [U31A G42U], the self-cleavage stood at 0.341.

For the variant AACACUGCCAAUGCCGGUCCCAAGCACGGAUAAAAGUGGUGGGGGCGG [C26A A40U], the self-cleavage is 0.107.

Regarding UACACUUCCAAUGCCGGUCCCAAGCCCGGAUAAAAGUGGAGGGGGCGG [A1U G7U], the self-cleavage is 0.059.

UACACUACCAAUGCCGGUCCCAAGCCCGGAUAAAAGUGGAGGGGGCGG [A1U G7A]: the self-cleavage came to 0.0601.

For the variant AACACUGCCAAUGCCGGUCCCAAGCCCGGAAAAAAGUGGAGGGGGCGU [U31A G48U], the self-cleavage was found to be 0.881.

For the variant AACACUGCUAAUGCAGGUCCCAAGCCCGGAUAAAAGUGGAGGGGGCGG [C9U C15A], the self-cleavage is 0.22.

Regarding AGCACUGCCAAUGCCGGUCCCUAGCCCGGAUAAAAGUGGAGGGGGCGG [A2G A22U], the self-cleavage was determined as 0.133.

As to AACACUGCCAAUGCCGGUCUCAAGCCCGGAUAAAAGUGGAGCGGGCGG [C20U G42C], the self-cleavage came to 0.654.
